Measurements: the nanobody polyreactivity screen of Harvey et al. (2022)

Assay: yeast display, Sf9 membrane polyspecificity reagent, FACS + sequencing; frameworks hold sequencing errors
Summary of the method: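 Galactose-induced (36–48 hours) yeast carrying a synthetic nanobody display library were exposed to 10% biotinylated, detergent-solubilized Sf9 membrane reagent at 4 °C for 1 hour. FACS followed streptavidin microbead enrichment, using low and high (top ~1%) gates for expression (anti-HA) and reagent binding (streptavidin). Colony PCR, MiSeq 2 × 250 sequencing and CDR-length filtering followed. Labels for polyreactivity reflect the gate of origin.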

| Sequence | polyreactivity (PSR sort gate) |
| --- | --- |
| QVQLVESGGGLVQAGGSLRLSCAASGFTFRVYAMGWYRQAPGKERELVAAITRGGSTKYADSVKGRFTISRDNAKNTVYLQMNSLKPEDTAVYYCAARYNGKLNWGQGTQVSVSS | high polyreactivity |
| QVQLVESGGGLVQAGGRLRLSCAASGRIFNIYAMGWYRQAPGKERELVAAISGSGGRTSYADSVKGRFTISRDNAKNTVYLQMNSLKPEDTAVYYCAADYSYYTSFRYDYWGQGTQVTVSS | low polyreactivity |
| QVQLVESGGGLVQAGGSLRLSCAASGIIFYYYVMGWYRQAPGKERELVAAISRSGGRTRYADSVKGRFTISRDNAKNTVYLQMNSLKPEDTAVYYCAAVGSVNYDADFDYWGQGTQVTVSS | high polyreactivity |
| QVQLVESGGGLVQAGGSLRLSCAASGSIFALYAMGWYRQAPGKERELVAAISYRGGRTYYADSVKGRFTISRDNAKNTVYLQMNSLKPEDTAVYFCATDFPGKFDYWGQGTQVTVSS | low polyreactivity |
| QVQHVESVGGLVQAGGSLRLSCASSGRTLFYYTMRWYRQARGTERELVAAISSGDSTNYADSVKGRFTISRDNAKNTVYLHMNSLKPEDTAVYYCAARFYQIRRRYDYWGQGTQVTVSS | low polyreactivity |
| QDQLVESGGGLVQAGGSLRLICASSGSNFESNTMGWYRQAPGKERELLAAINWSGGRTYYADSVKGRFSISRDNAKNTVYLQINSLKPEDTAVYYCATGTYSDYKLGQQLWGRYNYWGQGTQVSVSS | high polyreactivity |
| QVQLVESGGGVFQAGGTLSLSCAASGITFYPNDMGWYRQATGKETELVAAITTNDGDTYYADSVKGRFTISRDNAKNTVYLQMNSLKPEYTAVYYCAADSGSTSEYEYWGQGTQVTVSS | low polyreactivity |
| QVQLVESGGGLVQAGGSLRLSCAAYGRIFAYYAMGWYRQAPGKERELVAAISSGGTTNYADSVKGRFTISRDNAKNTVYLQMNSLKPEDTAVYYCNADGWRRSRQYYYWGQGTQVTVSS | low polyreactivity |
| QVQLVESGGGLVQAGGSLRLSCAASGRTFYYYAMGWYRQAPGKERELVASISRRGGSTYYADSVKGRFTISRDNAKNTVYLQMNSLKPEDTAVYYCAASHYHGYSLGYDYWGQGTQVTVSS | high polyreactivity |
| QVQLVESGGGLVQAGGSLRLSCAASGRTSRLYAMGWYRQAPGKERELVATITRSAGDTYYADSVKGRFTISRDNAKNTVYLQMNSLKPEDTAVYYCNARAAKWSRYDYWGQGTQVTVSS | high polyreactivity |
| QVQLVESGGGLVQAGGSLRLSCAASGSTFYTYTMGWYRQAPGKERELVAAITWSGGSTYYADSVKGRFTISRDNANNTVYLQMNSLKPEDTAVYYCNADQDYKGARPSGMDYCGQGTQVTVSS | low polyreactivity |
| QVQLVESGGGLVQAGGSLRLSCAASGRIFTRYAMGWYRHAPGKERELVAAITASGGRTYYADSVKGRFTISRDNAKNTVYLQMNSLKPEDTAVYYCAATYHRYYETQDSYDYWGQGTQVTVSS | high polyreactivity |
| QVQLVESGGGLVQAGGSLRLSCAASGITFVRNAMGWYRQAPGKEREFVAAISRSGTTTYYADSVKGRFTISRDNAKNTVYLQMNSLKPEETAVYYCAAVRWVRYRTSAYEYWGQGTQVTVSS | high polyreactivity |
| QVQLVESGGGLVQAGGSLRLSCAASGRILPWYAMGWYRQAPGKERELAARIRSTDSTNYADSVKGRFTISRDNAKNTVYLQMNSLKPEDTAVYYCAKVQWGFPYAWLGSDYWGQGTQVTVSS | low polyreactivity |
| QVQLVESGGGLVQAGGRLRLSCAASGSIFCVNAMGWSRQAPGKERELVATITGSSGITYYADSVKGRFTISRVNAKNTVYLQMNSVKPEDTAVYYCAAVLLKFAYNYNYWGQGTQVTVSS | low polyreactivity |
| QVQLVESWGGLVQAGGSLRLSCAASGRTIEQYAMGWYRQAPGKERELVAAISGSGGSTFYADSVKGRFTISRDNAKNTVYLQMNSLKPEDTAVYYCNAPGDGYLYDHTYDYWGQGTQVTVSS | low polyreactivity |
| QVQLVESGGGLVLAGGSLRLSCAASGSTFGDYAMGWYRQAPGNERELVAAISARGASTYYADSVKGRFTISRDNAKNTVYLQMNSLKPEDTAVYYCAARYVSSGRRFDYWGQGTQVTVSS | high polyreactivity |
| QVQLVESGGGLVQAGGSLRLSCAASGSTFWLNAMGWYRQAPGKEREFVAAITWSSGSTYYADSVKGRFTISRDNAKNTVYLQMNSLKPEDTAVYYCAADGRYVRIRGDYWGQGTQVTVSS | low polyreactivity |
| QVQLVESGGRLVQAGGSLRLSCAASGRIFTGSNVMGWYRQAPGKEREFVAVINSGGGSTYYADSVKGRFTISRDNAKNTVYLQMNSLKPEDTAVYYCAADVGGWGYYDWVQGTQVTVSS | low polyreactivity |
| QVQLVESGGGLVQAGGSLRLSCAASGLIYFYAMGWYRQAPGKERELVAAISSSGGRTYYADSVKGRFTISRDNAKNTVYLQMNSLKPEDTAVYYCAVVSSHYIGPGRNGYDYWGQGTQVTVSS | high polyreactivity |
| QVQLVESGGGLVKAGGSLRLSCAASGRIFVGYGMGWYRQAPGKERELVAAITSSGGSTYYADSVKGRFTISRDNAKNTVYLQMNILKPEDTAVYYCAAERGYHVGGSGLYDYWGQGTQVNVSS | low polyreactivity |
| QVQLVESGGGLVQAGGSLRLSCAASGSTFYRNAMGWYRQAPGKERELVAGISWRGGSTYYADSVKGRFTISRDNAKNTVYLQMNSLKPEDTAVYYCNTLGAGGYSSPADYYYWGQGTQVTVSS | high polyreactivity |

| Sequence | polyreactivity (PSR sort gate) |
| --- | --- |
| QVQLVESGGGLVQAGGSLRLSCAASGRTFSRYVMGWYRQAPGKERELVAAISRTGGRTYYADSVKGRFTISRDNAKNTVYLQMNSLKPEDTAVYYCNAGTVLISTYDYWGQGTQVSVSS | high polyreactivity |
| QVQLVESGGGLVQAGGSLRLSCAASGGIFGYNAMGWYRQAPGKERELVAAISRGTTTNYADSVKGRFTISRDNAKNTVYLQMNSLKPEDTAVYYCAADQPSKRYYYWGQGTQVTVSS | low polyreactivity |
| QDQLVESGGGLVQAGGSLRLSCAASGYTFDYNAMGWYRQAPGKEREFVAAIDWSGGNTYYADSVKGRFTISRDNAKNTVYLQMNSLKPEDTAVYYCNTVTEAVTRRYDYWGQGTQVTVSS | low polyreactivity |
| QVQLVESGGGLLQAGGSLRLSCAASGLIFRSYAMGWYRQAPGKERDLVAAITDLFWSTYYADSVKGRFTISRDNAKNTVYLQMNSLKPEDTAVYYCARDDWVYTNVEMDYWGQGTQVTVSS | high polyreactivity |
| QVQLVESGGGLVQAGRSLRLSCAASGSIFEYYAMGWSRQAPGKEWELVAAITESGGSTYYADSVKGRFHNFTRQCEEYRLFTDEQPETGRYRGLLLAADAESYQNDYALDYWGQGTQETVSS | low polyreactivity |
| QVQLVESGGRLVQAGGSLRLSCAASGITFYYYAMGWYRQAPGKERELVAAISVSGGSTYYADSVKGRFTISRDNAKNTVYLQMNSLKPEDTAVYYCAAADLLSYTYPEYDYWGQGTQVTVSS | low polyreactivity |
| QVQLVESGVGLVQAGGSLPLSCAASGRTFRYYTMGSYRQAPGKERELVAAITQSGDSTYYADSVKGRFTISRDNAKNTFYLQMNSLKPEDTAVYYCNKAWRRRGLYDYWGQGTQVTVSS | high polyreactivity |
| QVQLVESGGGLVQAGGSLRLSCAASGSTFSAYAMGWYRQAPGKERELVAAISKRGGSTYYADSVKGRFTISRDNAKNTVYLQMNSLKPEDTAVYYCNKESLYREFDYWGQGTQVTVSS | low polyreactivity |
| QVQLVESGGGLVQAGGSLRLSCAASGSIFKGYAMGWYRQAPGKERELVASITSSGASTYYADSGKGRFTISRDNAKNTVYLHMNSLKPEDTAVYYCATDHESVRVLVSSTSDYDYWGQGTQVTVSS | low polyreactivity |
| QVQLVESGGGLVQAGGSLRLSCAASGSTFYVYDMGCYRQAPGKEREWVAAISSGAGSTYYADSVKGRFTISRDNAKNTVYLQMNSLKRKIPRSITALLFTVNGGGSRSHDYWAQGTQVTVSS | low polyreactivity |
| QVQLVESGGGLVQAGGSLRLSCAASGSIFVWNALGWYRQAPGTERELVAAISYTDGSTYYADSVKGRFTISRDNATNTVYFQMNSLKPEVTAVYYCNAYPASRGPGNPLDDYWGQGTQVTVSS | low polyreactivity |
| QVQLGESGGGLVQAGGSLRLSCAASGSIFYFNAMGWYRQAPGKERELVAAISWSGRTYYADSVKGRFTISRDNAKNTVYLQMNSLKPEDTAVFYCAAKNTGRYYWGQGTQVTVSS | high polyreactivity |
| QVQLVESGGGLVQAGGRLRLSGAASGSIYFRNVMGWYRQAPGKERELVAAITWSGGGTYYPDSVKGRFTISRDNAKNTVYLQMNSLQPEDTAFYYCAARSPTIRYGAGYWGQVTQVTVSS | low polyreactivity |
| QVQLVESGGGLVQAGGSLRLSCAASGRTLVYYAMGWYRQAPGKERELVAAITSVGSTNYADSVKGRFTISRDNAKNTVYLQMNSLKPEDTAVYYCAVRRVVARYDHWGQGTQVTVSS | low polyreactivity |
| QVQLVESGGGLVQAGGSLRLSCAASGSIFKQYAMGWYRQAPGKERELVAAITWRGTGTYYADSVKGRFTISRDNAKNTVYLQMNSLKPEDTAVYYCAAKWYRRTYGYLPYTGIVNYDYWGQGTQVTVSS | high polyreactivity |
| QVQLVESAGGLVPAGGSLRLSCAASGSIIITKAMGWYRQAPGKERELVAAISWTDDITYYADSVKGRFTISRDNAKNTVYLQMNSLKPEDTAVYYCAAEETSYAYDYWGQGTQVTVSS | low polyreactivity |
| QVQLVESGGGLVQAGGSLRLSCAASGLTFYRNAMGRYRQAPGKERELVAAITASGGRTYYADSVKGRFTISRDNAKNTVYLQMNSLKPEVTAVYYCAADGKVQGGYYWGQGTQVTVSS | high polyreactivity |
| QVQLVESGGGLVQAGGSLRLSCAASGYIFGRNAMGWYRQAPGKERELVAVISSRGSRTYYADSVKGRFTISRDNAKNTVYLQMNSLKPEDTAVYYCAVRGVVNFDYWGQGTQVTVSS | high polyreactivity |
| QVQLVESGGGLVQAGGSLRLSCAASGSIFVVNAMGWYRQAPGKERELVAAITFSGDSTYYADSVKGRFTISRDNAKNTVYLQMNSLKPEDTAVYYCAAARRSSHWFTYDYWGQGTQVTVSS | high polyreactivity |
| QVQLVESGVGLVQAVGSLRLSCAASGSTFPWYAMGWYRQAPGKERSLVAGSSEGGGSTYYADSVKGRFTISRDNAKNTVYLQMNRLKPEDTAVYYCAADQVGAVYWVGEYGYWGQGTQVTVAS | low polyreactivity |
| QVQLVESGGGVVQAGGSLRLSCAASGSIFYSYAMGWYRQAPGKERELVAAISSSGTSTYYADSVKGRFTISRDNAKNTVYLQMNSLKPEDTAVYYCAARFYGTSYYRYNYWGQGTQVTVSS | high polyreactivity |
